Measurements as given in publication PMC4436832 (Molecular Biology of the Cell, 2015).
Changes are numbered by the printed parent chain. Names may count otherwise.

B1: Wild-type CapuCT (C-terminal Capu construct, residues 467–1059) (domain or fragment)
chain: VSDNESAKEDGEKPHAVAPPPPPPPPPLHAFVAPPPPPPPPPPPPPPLANYGAPPPPPPPPPGSGSAPPPPPPAPIEGGGGIPPPPPPMSASPSKTTISPAPLPDPAEGNWFHRTNTMRKSAVNPPKPMRPLYWTRIVTSAPPAPRPPSVANSTDSTENSGSSPDEPPAANGADAPPTAPPATKEIWTEIEETPLDNIDEFTELFSRQAIAPVSKPKELKVKRAKSIKVLDPERSRNVGIIWRSLHVPSSEIEHAIYHIDTSVVSLEALQHMSNIQATEDELQRIKEAAGGDIPLDHPEQFLLDISLISMASERISCIVFQAEFEESVTLLFRKLETVSQLSQQLIESEDLKLVFSIILTLGNYMNGGNRQRGQADGFNLDILGKLKDVKSKESHTTLLHFIVRTYIAQRRKEGVHPLEIRLPIPEPADVERAAQMDFEEVQQQIFDLNKKFLGCKRTTAKVLAASRPEIMEPFKSKMEEFVEGADKSMAKLHQSLDECRDLFLETMRFYHFSPKACTLTLAQCTPDQFFEYWTNFTNDFKDIWKKEITSLLNELMKKSKQAQIESRRNVSTKVEKSGRISLKERMLMRRSKN
B2: CapuCT-P597L (domain or fragment)
chain: B1 chain with P131L
B3: CapuCT-D854N (domain or fragment)
chain: B1 chain with D388N
B4: CapuCT-H977Y (domain or fragment)
chain: B1 chain with H511Y
B5: CapuCT-K586M (domain or fragment)
chain: B1 chain with K120M
B6: CapuCT-D662N (domain or fragment)
chain: B1 chain with D196N
B7: CapuCT-I751T (domain or fragment)
chain: B1 chain with I285T

Molecular target: Taxol-stabilized microtubules (tubulin, Cytoskeleton T240) (UniProt P02550)
Experiment: co-sedimentation

Row | Kd | stoichiometry N (α/β dimers per binding site) | Binder
1 | 150 nM | 1.42 | B1
2 | 300 nM | 0.88 | B2
3 | 100 nM | 1.48 | B3
4 | 180 nM | 0.95 | B4
5 | 250 nM | 0.88 | B5
6 | 250 nM | 0.87 | B6

Molecular target: the molecule itself
Experiment: SEC

Row | Binder | stoichiometry N
7 | B1 | 2
8 | B2 | 2
9 | B3 | 2
10 | B4 | 2
11 | B5 | 2
12 | B6 | 2

Molecular target: Acanthamoeba castellani actin (filaments) (Acanthamoeba castellani)
Experiment: not given

Row | koff | Binder
13 | 0.000245 s⁻¹ | B1
14 | 0.00277 s⁻¹ | B7
15 | 0.0021 s⁻¹ | B2
16 | 0.000592 s⁻¹ | B3
17 | 0.0013 s⁻¹ | B4
18 | 0.000852 s⁻¹ | B5
19 | 0.000297 s⁻¹ | B6
